Measurements published in US20220168400A1, “USE OF A MANGANESE SUPEROXIDE DISMUTASE WITH HIGH STABILITY IN THE PREVENTION OR TREATMENT OF CEREBRAL STROKE” (CARRY HEALTH BIOPHARMACEUTICALS (HANGZHOU) CO., LTD., priority 2019, published 2022).
Values joined by “and” are separate entries in the source; they are usually repeats but may differ in a detail not shown here. Equal values may be shown once.

Columns and labels:
[1] = Specific activity of MS-SOD; type: biochemical; conditions: MS-SOD used in the zebrafish experiments
[2] = system: cerebral hemorrhage model in wild-type AB strain zebrafish; experiment: Simvastatin-induced cerebral hemorrhage model in zebrafish (incidence); type: in vivo; conditions: for Number of zebrafish with cerebral hemorrhage / Incidence of cerebral hemorrhage: n = 30; for Incidence of cerebral hemorrhage: model control 83%
Procedure: 1 dpf wild-type AB strain zebrafish was administered with an aqueous simvastatin solution (0.5 μM) for 18 hours to establish a cerebral hemorrhage model in zebrafish. 180 wild-type AB strain zebrafishes at 1 day post fertilization (1 dpf) were randomly selected and put in a six-well plate, 30 per well (experiment group). Simvastatin was used to induce a cerebral hemorrhage model in zebrafish. Aqueous MS-SOD solutions with concentrations of 222, 667 and 2000 μg/mL were administrated respectively, the concentration of positive control drug icariin was 30 μM, and the normal control group and the model control group were set at the same time. The volume of each well was 3 mL. After 18 hours of co-treatment with MS-SOD and simvastatin, 30 zebrafishes from each group were selected and observed under a microscope, photos were taken and saved. The number of zebrafish with cerebral hemorrhage was counted, and the incidence of cerebral hemorrhage in zebrafish of each experiment group was calculated.

[3] = system: cerebral hemorrhage model in wild-type AB strain zebrafish; experiment: Movement velocity in simvastatin-induced cerebral hemorrhage model in zebrafish; type: in vivo; conditions: for Movement velocity (mean ± SE): n = 10, model control 80, normal control 198 mm/s
Procedure: 5 dpf wild-type AB strain zebrafish was administered with an aqueous simvastatin solution (0.5 μM) for 18 hours to establish a cerebral hemorrhage model in zebrafish. 180 wild-type AB strain zebrafishes at 5 days post fertilization (5 dpf) were randomly selected and put in a six-well plate, 30 per well (experiment group). Aqueous MS-SOD solutions with concentrations of 222, 667 and 2000 μg/mL were administrated respectively, the concentration of positive control drug icariin was 30 μM, and the normal control group and the model control group were set at the same time. The volume of each well was 3 mL. After treatment of zebrafishes with samples for 4 hours, except for the normal control group, the other experiment groups were treated with simvastatin for 18 hours to establish the cerebral hemorrhage model. After the treatment, 10 zebrafishes from each group were randomly selected to measure the movement velocity (V) of zebrafish using a behavioral analyzer. The statistical significance of the movement velocity was used to evaluate the behavioral improvement effect of MS-SOD on cerebral hemorrhage. The formula of the behavioral improvement effect of MS-SOD on cerebral hemorrhage was as follows: [formula] Statistical analysis was performed using variance analysis and Dunnett's T-test, and p<0.05 indicated a significant difference.

[4] = system: middle cerebral artery occlusion (MCAO) model in C57BL/6J mice; experiment: Cerebral infarction area in middle cerebral artery occlusion (MCAO) model (TTC staining); type: in vivo; conditions: vs model group
Source text: Male C57BL/6J wild-type mice were all purchased from Guangdong Experimental Animal Center. The male C57BL/6J wild-type mice were 8 weeks old, when they were subjected to establish middle cerebral artery occlusion (MCAO) model.
(3) MS-SOD1 group (10 mice): mice aged 4 weeks were fed with drinking water supplemented with MS-SOD for 4 weeks (3 U/day/g body weight), and then subjected to establish middle cerebral artery occlusion model;
(4) MS-SOD2 group (10 mice): after establishing middle cerebral artery occlusion model, the mice were intragastrically administered with MS-SOD 600 U once when they waked up from the anesthesia. […]
At 24 hours after MCAO model establishment, the head was cut off and the brain was taken after anesthesia. […] The infarction area of each territory was measured by ImageJ software. […] The total infarction area was calculated by integrating the infarction territories between sections.
Finally, the differences of different intervention conditions and MCAO model establishment on the degree of cerebral injury and neurological severity in mice were analyzed. All data were expressed as mean ±standard deviation. […]

B1: MS-SOD: manganese superoxide dismutase with high stability, gene from Thermus thermophilus HB27 expressed in E. coli; amino acid sequence SEQ ID NO: 4 (protein)
chain: MPYPFKLPDLGYPYEALEPHIDAKTMEIHHQKHHGAYVTNLNAALEKYPYLHGVEVEVLLRHLAALPQDIQTAVRNNGGGHLNHSLFWRLLTPGGAKEPVGELKKAIDEQFGGFQALKEKLTQAAMGRFGSGWAWLVKDPFGKLHVLSTPNQDNPVMEGFTPIVGIDVWEHAYYLKYQNRRADYLQAIWNVLNWDVAEEFFKKA
modifications: Amino acid sequence for MS-SOD
**Q.** For B1, which specific activity [1] is on record?
**A.** The specific activity was 5 U/μg.

**Q.** And the “Improvement effect on cerebral hemorrhage” value ([2]; MS-SOD 222 μg/mL)?
**A.** Its value is 28%.

**Q.** And the “Number of zebrafish with cerebral hemorrhage” value (“Number of zebrafish” for short) ([2]; MS-SOD 222 μg/mL)?
**A.** The value was 18.

**Q.** What about the “Incidence of cerebral hemorrhage” value ([2]; MS-SOD 222 μg/mL) of the same molecule?
**A.** The value was 60%.

**Q.** What about the “Improvement effect on cerebral hemorrhage” value ([2]; MS-SOD 667 μg/mL) of the same molecule?
**A.** The value was 20%.

**Q.** And the “Number of zebrafish” value ([2]; MS-SOD 667 μg/mL)?
**A.** The value was 20.

**Q.** What about the “Incidence of cerebral hemorrhage” value ([2]; MS-SOD 667 μg/mL) of the same molecule?
**A.** Its value is 67%.

**Q.** What about the “Improvement effect on cerebral hemorrhage” value ([2]; MS-SOD 2000 μg/mL) of the same molecule?
**A.** Its value is 32%.

**Q.** And the “Number of zebrafish” value ([2]; MS-SOD 2000 μg/mL)?
**A.** The value was 17.

**Q.** And the “Incidence of cerebral hemorrhage” value ([2]; MS-SOD 2000 μg/mL)?
**A.** The value was 57%.

**Q.** What about the Movement improvement effect ([3]; MS-SOD 222 μg/mL) of the same molecule?
**A.** The Movement improvement effect was −2%.

**Q.** And the “Movement velocity (mean ± SE)” value ([3]; MS-SOD 222 μg/mL)?
**A.** The value was 78 mm/s and 78 ± 4 mm/s.

**Q.** And the Movement improvement effect ([3]; MS-SOD 667 μg/mL)?
**A.** Its Movement improvement effect is 7%.

**Q.** What about the “Movement velocity (mean ± SE)” value ([3]; MS-SOD 667 μg/mL) of the same molecule?
**A.** The value was 88 mm/s and 88 ± 3 mm/s.

**Q.** And the Movement improvement effect ([3]; MS-SOD 2000 μg/mL)?
**A.** Its Movement improvement effect is 53%.

**Q.** And the “Movement velocity (mean ± SE)” value ([3]; MS-SOD 2000 μg/mL)?
**A.** The value was 143 mm/s and 143 ± 24 mm/s.

**Q.** And the “area of cerebral injury” value ([4]; MS-SOD1 group: 3 U/day/g body weight for 4 weeks before MCAO, P=0)?
**A.** Its value is “significantly reduced”.

**Q.** And the “area of cerebral injury” value ([4]; MS-SOD2 group: 600 U intragastrically once after MCAO, P=0.015)?
**A.** The value was “significantly reduced”.
